For one protein, Km results are on record in ChEMBL document CHEMBL2074568, “Characterization of the transport properties of human multidrug resistance protein 7 (MRP7, ABCC10)” (Mol Pharmacol, 2003).

Substrate in the series: C[C@]12CC[C@@H]3c4ccc(O)cc4CC[C@H]3[C@@H]1CC[C@@H]2O[C@@H]1O[C@H](C(=O)O)[C@@H](O)[C@H](O)[C@H]1O
The series can be described thus: TP_TRANSPORTER: uptake in membrane vesicles from MRP7-expressing HEK293 cells. The following applies: Membrane vesicle. The class given is functional, cell membranes.

B1: ATP-binding cassette sub-family C member 10 (Homo sapiens), Q5T3U5 (protein)
chain: MERLLAQLCGSSAAWPLPLWEGDTTGHCFTQLVLSALPHALLAVLSACYLGTPRSPDYILPCSPGWRLRLAASFLLSVFPLLDLLPVALPPGAGPGPIGLEVLAGCVAAVAWISHSLALWVLAHSPHGHSRGPLALALVALLPAPALVLTVLWHCQRGTLLPPLLPGPMARLCLLILQLAALLAYALGWAAPGGPREPWAQEPLLPEDQEPEVAEDGESWLSRFSYAWLAPLLARGACGELRQPQDICRLPHRLQPTYLARVFQAHWQEGARLWRALYGAFGRCYLALGLLKLVGTMLGFSGPLLLSLLVGFLEEGQEPLSHGLLYALGLAGGAVLGAVLQNQYGYEVYKVTLQARGAVLNILYCKALQLGPSRPPTGEALNLLGTDSERLLNFAGSFHEAWGLPLQLAITLYLLYQQVGVAFVGGLILALLLVPVNKVIATRIMASNQEMLQHKDARVKLVTELLSGIRVIKFCGWEQALGARVEACRARELGRLRVIKYLDAACVYLWAALPVVISIVIFITYVLMGHQLTATKVFTALALVRMLILPLNNFPWVINGLLEAKVSLDRIQLFLDLPNHNPQAYYSPDPPAEPSTVLELHGALFSWDPVGTSLETFISHLEVKKGMLVGIVGKVGCGKSSLLAAIAGELHRLRGHVAVRGLSKGFGLATQEPWIQFATIRDNILFGKTFDAQLYKEVLEACALNDDLSILPAGDQTEVGEKGVTLSGGQRARIALARAVYQEKELYLLDDPLAAVDADVANHLLHRCILGMLSYTTRLLCTHRTEYLERADAVLLMEAGRLIRAGPPSEILPLVQAVPKAWAENGQESDSATAQSVQNPEKTKEGLEEEQSTSGRLLQEESKKEGAVALHVYQAYWKAVGQGLALAILFSLLLMQATRNAADWWLSHWISQLKAENSSQEAQPSTSPASMGLFSPQLLLFSPGNLYIPVFPLPKAAPNGSSDIRFYLTVYATIAGVNSLCTLLRAVLFAAGTLQAAATLHRRLLHRVLMAPVTFFNATPTGRILNRFSSDVACADDSLPFILNILLANAAGLLGLLAVLGSGLPWLLLLLPPLSIMYYHVQRHYRASSRELRRLGSLTLSPLYSHLADTLAGLSVLRATGATYRFEEENLRLLELNQRCQFATSATMQWLDIRLQLMGAAVVSAIAGIALVQHQQGLANPGLVGLSLSYALSLTGLLSGLVSSFTQTEAMLVSVERLEEYTCDLPQEPQGQPLQLGTGWLTQGGVEFQDVVLAYRPGLPNALDGVTFCVQPGEKLGIVGRTGSGKSSLLLVLFRLLEPSSGRVLLDGVDTSQLELAQLRSQLAIIPQEPFLFSGTVRENLDPQGLHKDRALWQALKQCHLSEVITSMGGLDGELGEGGRSLSLGQRQLLCLARALLTDAKILCIDEATASVDQKTDQLLQQTICKRFANKTVLTIAHRLNTILNSDRVLVLQAGRVVELDSPATLRNQPHSLFQQLLQSSQQGVPASLGGP
As a reminder, the Km is the concentration of substrate that gives half-maximal velocity. As to B1, the Km is 57.8 µM.
